The target in test [1] is mTMEM16A (mouse) (UniProt Q8BHY3). In words: cell-based or functional assay.
In test [2] the target is TMEM16A-GFP (mouse) (UniProt Q8BHY3). In words: SiMPull, GFP photobleaching step count (stoichiometry).

This is an account of results in patent publication US20230242610A1.

Chain of mTMEM16A (mouse) (Q8BHY3 whole entry): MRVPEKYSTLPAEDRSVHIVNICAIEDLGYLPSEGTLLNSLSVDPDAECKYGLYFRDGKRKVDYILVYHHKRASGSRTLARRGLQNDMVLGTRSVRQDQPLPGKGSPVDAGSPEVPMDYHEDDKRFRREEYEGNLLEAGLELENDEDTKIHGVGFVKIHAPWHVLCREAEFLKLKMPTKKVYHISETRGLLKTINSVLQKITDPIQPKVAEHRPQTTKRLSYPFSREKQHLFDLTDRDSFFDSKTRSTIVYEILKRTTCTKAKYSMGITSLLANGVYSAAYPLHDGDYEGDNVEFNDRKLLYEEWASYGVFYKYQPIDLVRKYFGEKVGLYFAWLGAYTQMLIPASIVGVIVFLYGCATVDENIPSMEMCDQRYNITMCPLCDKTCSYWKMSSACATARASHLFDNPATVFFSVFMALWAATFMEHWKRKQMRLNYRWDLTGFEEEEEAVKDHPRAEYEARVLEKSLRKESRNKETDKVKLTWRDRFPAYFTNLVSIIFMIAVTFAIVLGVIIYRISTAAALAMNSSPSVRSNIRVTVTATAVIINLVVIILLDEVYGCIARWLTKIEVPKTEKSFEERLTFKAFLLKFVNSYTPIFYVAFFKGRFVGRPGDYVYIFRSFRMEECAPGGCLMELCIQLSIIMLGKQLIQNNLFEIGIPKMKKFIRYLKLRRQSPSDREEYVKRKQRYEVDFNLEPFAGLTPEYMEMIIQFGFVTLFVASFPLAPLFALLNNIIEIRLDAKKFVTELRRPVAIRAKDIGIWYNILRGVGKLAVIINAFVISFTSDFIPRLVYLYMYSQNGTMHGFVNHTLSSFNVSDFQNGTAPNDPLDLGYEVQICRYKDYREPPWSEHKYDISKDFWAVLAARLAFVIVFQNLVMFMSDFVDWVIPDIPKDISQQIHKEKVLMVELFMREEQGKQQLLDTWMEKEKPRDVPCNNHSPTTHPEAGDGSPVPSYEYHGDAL

Take KCNE1ΔCt (from UniProt P15382 1-66): the current density at +100 mV, HEK293T co-expressing TMEM16A and KCNE1ΔCt in test [1] turned out to be 25 pA/pF.

In test [2], HA-KCNE1 (from UniProt P15382 1-129) had a share of pulled-down spots with one-step photobleaching of TMEM16A-GFP of 20%, a share of pulled-down spots with three-step photobleaching of TMEM16A-GFP of 10% and a share of pulled-down spots with two-step photobleaching of TMEM16A-GFP of 70%.

In turn, KCNE1ΔNt16 (from UniProt P15382 16-129) showed a current density at +100 mV, HEK293T co-expressing TMEM16A and KCNE1ΔNt16 in test [1] of 25.4 pA/pF.

Turning to KCNE1 T7I (from UniProt P15382 1-129), the current density at +100 mV, HEK293T co-expressing TMEM16A and KCNE1 T7I in test [1] came to 24.7 pA/pF.

On to hKCNE1 (from UniProt P15382 1-129), for which, in test [1], the current density at +100 mV with 1 mM BAPTA, HEK293T, TMEM16A co-expressed with KCNE1 (against TMEM16A alone) stood at 22 pA/pF and the current density at +100 mV, whole-cell patch clamp, HEK293T co-expressing both proteins amounted to 18.1 pA/pF.

In test [1], KCNE1S38G (from UniProt P15382 1-129) had a current density at +100 mV, HEK293T co-expressing TMEM16A and KCNE1 S38G of 6.96 pA/pF.

Consider KCNE1ΔNt (from UniProt P15382 43-129), for which the current density at +100 mV, HEK293T co-expressing TMEM16A and KCNE1ΔNt in test [1] stood at 6.56 pA/pF.

Consider KCNE1ΔNt30 (from UniProt P15382 30-129), for which the current density at +100 mV, HEK293T co-expressing TMEM16A and KCNE1ΔNt30 in test [1] is 25.2 pA/pF.
